Assay results taken from patent publication US20050064507.

Key:
[1] = target: T1, beta adducin peptide PSKSPSKKKKKFRTPSFLKK (SEQ ID NO:137) (not fully specified)
T1 chain: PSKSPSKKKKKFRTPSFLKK

[2] = target: T2, MGC2941 peptide RPTPGDGEKRSRIKKSKKRK (SEQ ID NO:139) (not fully specified)
T2 chain: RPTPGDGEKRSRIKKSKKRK

[3] = target: T3, ASIP peptide KKRSSKKEASMKKVVRP (SEQ ID NO:97) (not fully specified)
T3 chain: KKRSSKKEASMKKVVRP

[4] = target: T4, MARCKS peptide KKRFSFKKSFKLSGFSFKKN (SEQ ID NO:123) (not fully specified)
T4 chain: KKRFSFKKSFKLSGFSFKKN

[5] = target: T5, MYBPC3 peptide LLKKRDSFRTPRDSKLE (SEQ ID NO:103) (not fully specified)
T5 chain: LLKKRDSFRTPRDSKLE

[6] = target: T6, dag kinase iota peptide NRKKKRTSFKRKA (SEQ ID NO:117) (not fully specified)
T6 chain: NRKKKRTSFKRKA

[7] = target: T7, dag kinase zeta peptide RPQNTLKASKKKKRASFKRK (SEQ ID NO:118) (not fully specified)
T7 chain: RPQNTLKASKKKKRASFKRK

[8] = target: T8, PARIS1 peptide EYLERRASRRRAV (SEQ ID NO:130) (not fully specified)
T8 chain: EYLERRASRRRAV

[9] = target: T9, pkc-zeta peptide GLPAPGEDKSIYRRGSRRWR (SEQ ID NO:167) (not fully specified)
T9 chain: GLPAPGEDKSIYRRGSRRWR

[10] = target: T10, DGKZ peptide KKKKRASFKRKSSKKG (SEQ ID NO:77) (not fully specified)
T10 chain: KKKKRASFKRKSSKKG

[11] = target: T11, p164-RhoGEF peptide PRLIRRGSKKRPAR (SEQ ID NO:124) (not fully specified)
T11 chain: PRLIRRGSKKRPAR

[12] = target: T12, splicing factor, arginine/serine-rich 4 peptide RSRSRSRSKSKDKRKSRKRS (SEQ ID NO:134) (not fully specified)
T12 chain: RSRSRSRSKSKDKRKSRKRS

[13] = target: T13, FLJ20574 peptide GENVLKKSMKSRVKG (SEQ ID NO:113) (not fully specified)
T13 chain: GENVLKKSMKSRVKG

[14] = target: T14, SDPR peptide EKIKRSSLKKVDSLKK (SEQ ID NO:104) (not fully specified)
T14 chain: EKIKRSSLKKVDSLKK

[15] = target: T15, CACNA1C peptide RGFLRSASLGRRASFHLE (SEQ ID NO:96) (not fully specified)
T15 chain: RGFLRSASLGRRASFHLE

[16] = target: T16, NF1 peptide AGSFKRNSIKKIV (SEQ ID NO:102) (not fully specified)
T16 chain: AGSFKRNSIKKIV

[17] = target: T17, PLEK peptide KFARKSTRRSIRLPE (SEQ ID NO:78) (not fully specified)
T17 chain: KFARKSTRRSIRLPE

[18] = target: T18, MARCKS peptide KKRFSFKKSFKLSGFSFKKN (SEQ ID NO:119) (not fully specified)
T18 chain: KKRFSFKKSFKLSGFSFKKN

[19] = target: T19, Urotensin-2 receptor peptide LYARLARAYRRSQRASFKRA (SEQ ID NO:159) (not fully specified)
T19 chain: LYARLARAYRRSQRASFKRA

[20] = target: T20, HERG peptide TELEGGFSRQRKRKLSFRRR (SEQ ID NO:140) (not fully specified)
T20 chain: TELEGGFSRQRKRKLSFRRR

[21] = target: T21, PRKCM peptide VHYTSKDTLRKRHYWR (SEQ ID NO:91) (not fully specified)
T21 chain: VHYTSKDTLRKRHYWR

[22] = target: T22, NEURL peptide ALRRPSLRREADD (SEQ ID NO:105) (not fully specified)
T22 chain: ALRRPSLRREADD

[23] = target: T23, PARIS1 peptide EYLERRASRRRAV (SEQ ID NO:138) (not fully specified)
T23 chain: EYLERRASRRRAV

[24] = target: T24, fit1 peptide VQMTWSYPDEKNKRASVRRR (SEQ ID NO:158) (not fully specified)
T24 chain: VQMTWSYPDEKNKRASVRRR

[25] = target: T25, SMARCA5 peptide MAQIERGEARIQRRISIKKA (SEQ ID NO:166) (not fully specified)
T25 chain: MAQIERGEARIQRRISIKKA

[26] = target: T26, PARIS1 peptide RELEQLKAEYLERRASRRRA (SEQ ID NO:148) (not fully specified)
T26 chain: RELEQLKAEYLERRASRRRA

[27] = target: T27, NR4A3 peptide KEVVRTDSLKGRRGR (SEQ ID NO:109) (not fully specified)
T27 chain: KEVVRTDSLKGRRGR

[28] = target: T28, EBNA1BP2 peptide KRPGKKGSNKRPGKR (SEQ ID NO:112) (not fully specified)
T28 chain: KRPGKKGSNKRPGKR

[29] = target: T29, MLK3 peptide QQVDRERPHVRRRRGTFKRS (SEQ ID NO:128) (not fully specified)
T29 chain: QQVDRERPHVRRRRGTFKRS

[30] = target: T30, ARHGAP6 peptide SAQITIPKDGQKRKKSLRKK (SEQ ID NO:156) (not fully specified)
T30 chain: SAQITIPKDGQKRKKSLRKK

[31] = target: T31, ARHGAP6 peptide DGQKRKKSLRKKLD (SEQ ID NO:92) (not fully specified)
T31 chain: DGQKRKKSLRKKLD

B1: PKC-zeta (protein)
chain: MPSRTGPKMEGSGGRVRLKAHYGGDIFITSVDAATTFEELCEEVRDMCRLHQQHPLTLKWVDSEGDPCTVSSQMELEEAFRLARQCRDEGLIIHVFPSTPEQPGLPCPGEDKSIYRRGARRWRKLYRANGHLFQAKRFNRRAYCGQCSERIWGLARQGYRCINCKLLVHKRCHGLVPLTCRKHMDSVMPSQEPPVDDKNEDADLPSEETDGIAYISSSRKHDSIKDDSEDLKPVIDGMDGIKISQGLGLQDFDLIRVIGRGSYAKVLLVRLKKNDQIYAMKVVKKELVHDDEDIDWVQTEKHVFEQASSNPFLVGLHSCFQTTSRLFLVIEYVNGGDLMFHMQRQRKLPEEHARFYAAEICIALNFLHERGIIYRDLKLDNVLLDADGHIKLTDYGMCKEGLGPGDTTSTFCGTPNYIAPEILRGEEYGFSVDWWALGVLMFEMMAGRSPFDIITDNPDMNTEDYLFQVILEKPIRIPRFLSVKASHVLKGFLNKDPKERLGCRPQTGFSDIKSHAFFRSIDWDLLEKKQALPPFQPQITDDYGLDNFDTQFTSEPVQLTPDDEDAIKRIDQSEFEGFEYINPLLLSTEESV
in vitro phosphorylation, 1 uM peptide (% of best substrate) [1]: 4 | in vitro phosphorylation, 10 uM peptide (% of best substrate) [1]: 5 | in vitro phosphorylation, 1 uM peptide (% of best substrate) [2]: 1 | in vitro phosphorylation, 10 uM peptide (% of best substrate) [2]: 1 | in vitro phosphorylation (% of best substrate) [3]: 1 | in vitro phosphorylation, 1 uM peptide (% of best substrate) [4]: 20 | in vitro phosphorylation, 10 uM peptide (% of best substrate) [4]: 20 | in vitro phosphorylation (% of best substrate) [5]: 8 | in vitro phosphorylation, 1 uM peptide (% of best substrate) [6]: 20 | in vitro phosphorylation, 10 uM peptide (% of best substrate) [6]: 11 | in vitro phosphorylation, 1 uM peptide (% of best substrate) [7]: 46 | in vitro phosphorylation, 10 uM peptide (% of best substrate) [7]: 57 | in vitro phosphorylation, 1 uM peptide (% of best substrate) [8]: 36 | in vitro phosphorylation, 10 uM peptide (% of best substrate) [8]: 39 | in vitro phosphorylation, 1 uM peptide (% of best substrate) [9]: 5 | in vitro phosphorylation, 10 uM peptide (% of best substrate) [9]: 37 | in vitro phosphorylation (% of best substrate) [10]: 60 | in vitro phosphorylation, 1 uM peptide (% of best substrate) [11]: 45 | in vitro phosphorylation, 10 uM peptide (% of best substrate) [11]: 32 | in vitro phosphorylation, 1 uM peptide (% of best substrate) [12]: 5 | in vitro phosphorylation, 10 uM peptide (% of best substrate) [12]: 5 | in vitro phosphorylation (% of best substrate) [13]: 1 | in vitro phosphorylation (% of best substrate) [14]: 3 | in vitro phosphorylation (% of best substrate) [15]: 22 | in vitro phosphorylation (% of best substrate) [16]: 2 | in vitro phosphorylation (% of best substrate) [17]: 100 | in vitro phosphorylation, 1 uM peptide (% of best substrate) [18]: 20 | in vitro phosphorylation, 10 uM peptide (% of best substrate) [18]: 20 | in vitro phosphorylation, 1 uM peptide (% of best substrate) [19]: 25 | in vitro phosphorylation, 10 uM peptide (% of best substrate) [19]: 41 | in vitro phosphorylation, 1 uM peptide (% of best substrate) [20]: 24 | in vitro phosphorylation, 10 uM peptide (% of best substrate) [20]: 49 | in vitro phosphorylation (% of best substrate) [21]: 12 | in vitro phosphorylation (% of best substrate) [22]: 4 | in vitro phosphorylation, 1 uM peptide (% of best substrate) [23]: 31 | in vitro phosphorylation, 10 uM peptide (% of best substrate) [23]: 61 | in vitro phosphorylation, 1 uM peptide (% of best substrate) [24]: 11 | in vitro phosphorylation, 10 uM peptide (% of best substrate) [24]: 72 | in vitro phosphorylation, 1 uM peptide (% of best substrate) [25]: 2 | in vitro phosphorylation, 10 uM peptide (% of best substrate) [25]: 9 | in vitro phosphorylation, 1 uM peptide (% of best substrate) [26]: 20 | in vitro phosphorylation, 10 uM peptide (% of best substrate) [26]: 20 | in vitro phosphorylation (% of best substrate) [27]: 2 | in vitro phosphorylation (% of best substrate) [28]: 1 | in vitro phosphorylation, 1 uM peptide (% of best substrate) [29]: 14 | in vitro phosphorylation, 10 uM peptide (% of best substrate) [29]: 9 | in vitro phosphorylation, 1 uM peptide (% of best substrate) [30]: 15 | in vitro phosphorylation, 10 uM peptide (% of best substrate) [30]: 44 | in vitro phosphorylation (% of best substrate) [31]: 2
